According to article PMC2817709, “A Novel High-Affinity Sucrose Transporter Is Required for Virulence of the Plant Pathogen Ustilago maydis” (PLoS Biology, 2010):

Columns and labels:
[1] = test system: OC[C@H]1O[C@@](CO)(O[C@H]2O[C@H](CO)[C@@H](O)[C@H](O)[C@H]2O)[C@@H](O)[C@@H]1O; test: cells, lysate or membranes; conditions: pH 5.0, 50 mM Na-phosphate, 29°C, H+ symport, labelled compound
[2] = molecular target: T1, Srt1 (Mycosarcoma maydis, UniProt A0A0D1E1N5); test: competition with […]-sucrose uptake in srt1-expressing S. cerevisiae; type: cell-based; conditions: 10 mM competitor (100-fold excess) against 0.1 mM 14C-sucrose; pH 5.0, 29°C
T1 construct: gene UMAG_02374; full-length ORF, 546 residues, 12 predicted TMDs, untagged in vector NEV-E; expressed in invertase-deficient S. cerevisiae SEY2102
T1 sequence (A0A0D1E1N5 entry or part of it): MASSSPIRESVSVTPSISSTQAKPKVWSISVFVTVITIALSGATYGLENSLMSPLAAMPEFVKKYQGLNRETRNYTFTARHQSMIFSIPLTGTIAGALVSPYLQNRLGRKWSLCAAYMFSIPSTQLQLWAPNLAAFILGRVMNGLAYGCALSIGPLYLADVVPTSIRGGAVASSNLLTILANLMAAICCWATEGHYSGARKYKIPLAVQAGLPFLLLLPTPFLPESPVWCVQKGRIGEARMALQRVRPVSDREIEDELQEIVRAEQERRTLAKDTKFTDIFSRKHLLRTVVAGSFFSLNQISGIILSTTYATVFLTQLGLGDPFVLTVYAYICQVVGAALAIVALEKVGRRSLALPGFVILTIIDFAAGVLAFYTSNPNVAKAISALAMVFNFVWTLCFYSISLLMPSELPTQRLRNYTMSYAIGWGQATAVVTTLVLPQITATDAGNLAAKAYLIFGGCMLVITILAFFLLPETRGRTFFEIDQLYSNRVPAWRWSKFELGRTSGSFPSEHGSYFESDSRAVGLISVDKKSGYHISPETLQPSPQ

Compound | Km [1] [µM] | inhibition of sucrose uptake [2]
Srt1 (Mycosarcoma maydis) | 26 ± 4.3 | 
OC[C@H]1O[C@H](OC[C@H]2O[C@H](O[C@]3(CO)O[C@H](CO)[C@@H](O)[C@@H]3O)[C@H](O)[C@@H](O)[C@@H]2O)[C@H](O)[C@@H](O)[C@H]1O [raffinose] |  | raffinose was the only alternative compound that caused a minor inhibition of sucrose uptake
